Our source for the collision cross section values is the supplement of paper PMC10598134.

This data set is described as follows: collision cross section of unmodified peptide (TIMS, N2, iRT-aligned); higher = larger / more extended gas-phase ion. The method in brief:
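Synthetic peptide pools (~100 fmol/µL in 2% acetonitrile/0.1% formic acid, iRT standard spiked 1:40) were separated on a 120-min nanoflow C18 gradient at 60 °C. They were analysed on a timsTOF Pro/HT (dda-PASEF, nitrogen, ~2.4 mbar) and identified with MaxQuant. 1/K0 was calibrated with three reference ions and aligned run-wise to the median iRT peptide deviation. Collision cross section came from the Mason-Schamp equation, averaging 1–3 technical replicates of the most abundant feature per charge state.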

± gives the standard deviation.

Regarding VLATQPGPGRGR, the collision cross section reads like this: (charge state: 2) 368.04 ± 0.27 Å²; (charge state: 3) 447.7 ± 3 Å².
As to TSAYGPPTR, the collision cross section (charge state: 2) is reported as 322.86 ± 1.6 Å².
For GPQNATDSYVHK, the collision cross section by setting is: (charge state: 2) 381.43 ± 1.1 Å²; (charge state: 3) 445.36 ± 1.8 Å².
Regarding GTITVSAQELKDNR, the collision cross section is, setting by setting: (charge state: 2) 437.3 ± 1.6 Å²; (charge state: 3) 507.47 ± 4.6 Å².
The corresponding values for SGRGGNFGFGDSR are 375.82 ± 0.59 Å² and 452.15 ± 2.9 Å².
On to SRFYSGFNSR, for which the collision cross section by setting is: (charge state: 2) 370.83 ± 0.54 Å²; (charge state: 3) 436.82 ± 3.8 Å².
Turning to GFPGIQGRK, the collision cross section (charge state: 2) is recorded as 338.49 ± 1.5 Å² and the collision cross section (charge state: 3) is reported as 406.74 ± 2 Å².
In turn, DFAFYNPRLQGK came in with a collision cross section (charge state: 2) of 408.01 ± 1.3 Å² and a collision cross section (charge state: 3) of 473.2 ± 2.9 Å².
With SRGGGGNFGPGPGSNFR, for the setting “charge state: 3”, the collision cross section is 460.96 ± 1.4 Å².
SQAGASELGPFSDPR: the collision cross section (charge state: 2) was 396.36 ± 0.66 Å².
Turning to VDIDAPDVSIEGPDAKLK, the collision cross section (charge state: 2) worked out at 460.39 ± 2.9 Å² and the collision cross section (charge state: 3) stood at 544.84 ± 1.8 Å².
As for GRGYFEHR, the collision cross section by setting is: (charge state: 2) 340.02 ± 0.52 Å²; (charge state: 3) 409.47 ± 5.3 Å².
Under “charge state: 3”, TPSSFRQPFTPTSR had a collision cross section of 486.75 ± 0.79 Å².
Take VGADGTVFATR: the collision cross section (charge state: 2) is given as 348.87 ± 0.14 Å².
Take ALYETELADAR: the collision cross section (charge state: 2) is given as 385.99 ± 0.47 Å².
In turn, PGPQPSAETTR gave a collision cross section (charge state: 2) of 342.87 ± 0.58 Å² and a collision cross section (charge state: 3) of 415.85 ± 2 Å².
With SKLLFSNTAAQK, the collision cross section by setting is: (charge state: 2) 393.75 ± 6 Å²; (charge state: 3) 444.64 ± 5 Å².
SYGIPYIETSAK returned a collision cross section (charge state: 2) of 384.66 ± 0.47 Å².
Substance SFDEVEGVFGRGGGR displayed a collision cross section (charge state: 2) of 414.68 ± 0.96 Å² and a collision cross section (charge state: 3) of 509.8 ± 1.2 Å².
Take VVDLLAPYAK: the collision cross section (charge state: 2) amounted to 358.2 ± 7.9 Å².
For the substance AYDATHLVK, the collision cross section is recorded as 353.02 ± 0.48 Å² (charge state: 2) and 420.22 ± 1.4 Å² (charge state: 3).
The substance PGNSGIR returned a collision cross section (charge state: 2) of 278.56 ± 0.86 Å².
Turning to GEKGLPGLAGDHGEFGEK, where the note is “charge state: 3”, the collision cross section came out at 564.38 ± 1.3 Å².
As to LGILPVGRGK, the collision cross section (charge state: 2) is 351.11 ± 0.11 Å² and the collision cross section (charge state: 3) amounted to 438.91 ± 4.7 Å².
Where the note is “charge state: 2”, YEATSVQQK came in with a collision cross section of 342.24 ± 1.4 Å².
Regarding GRGAANDSTQFTVAGR, the collision cross section reads like this: (charge state: 2) 411.19 Å²; (charge state: 3) 473.86 ± 2.3 Å².
As for VTGGIFSVTK, the collision cross section (charge state: 2) is given as 335.98 ± 0.58 Å².
As to TPLTHALPGLSEQEGQK, the collision cross section (charge state: 3) is on record as 495.4 ± 0.86 Å².
Turning to RGPPGAK, the collision cross section (charge state: 2) is 308.91 ± 1.4 Å².
On to YEEIVKEVSTYIK, for which the collision cross section reads like this: (charge state: 2) 443.47 ± 2.8 Å²; (charge state: 3) 492.72 ± 2.3 Å².
For the substance PSVSTKLISK, the collision cross section is 360.6 ± 1.3 Å² (charge state: 2) and 423.25 ± 3.8 Å² (charge state: 3).
In the case of VLDSGAPIKIPVGPETLGR, the collision cross section by setting is: (charge state: 2) 485.73 ± 3 Å²; (charge state: 3) 510.9 ± 2.1 Å².
Consider LPPGALAHRLPTTGYLVYR, for which the collision cross section (charge state: 3) amounted to 556.45 ± 1.4 Å².
Take SLKLNTAEDAK: the collision cross section by setting is: (charge state: 2) 372.65 ± 1.5 Å²; (charge state: 3) 469.12 ± 5.3 Å².
In the case of GGSGGRGVSVSSAR, the collision cross section (charge state: 2) came out at 376.75 ± 1.3 Å² and the collision cross section (charge state: 3) is recorded as 456.24 ± 1.8 Å².
Under “charge state: 3”, TTSYPTPRPYPKPAPSSGK had a collision cross section of 522.76 ± 0.86 Å².
As for STNVTVAAARGIK, the collision cross section runs as follows: (charge state: 2) 399.07 ± 1.1 Å²; (charge state: 3) 480.75 ± 3.1 Å².
Consider DLYEPSHGAK, for which the collision cross section is, setting by setting: (charge state: 2) 358.09 ± 0.48 Å²; (charge state: 3) 429.53 ± 1.1 Å².
As to LSQEDPDYGIR, the collision cross section (charge state: 2) is 376.56 ± 0.14 Å².
As for VSFLSALEEYTK, the collision cross section (charge state: 2) is 392.46 ± 0.78 Å².
For the substance FTEYETQVK, for the setting “charge state: 2”, the collision cross section came out at 363.82 ± 1.3 Å².
Consider SGGYGGSRDYYSSR, for which the collision cross section was 399.15 ± 1.2 Å² (charge state: 2) and 474.66 ± 1.4 Å² (charge state: 3).
GFLQPPPLRQPR: the collision cross section (charge state: 2) came to 397.31 ± 0.59 Å² and the collision cross section (charge state: 3) was 451.27 ± 5.3 Å².
As to AEGYEVAHGGR, the collision cross section runs as follows: (charge state: 2) 358.34 ± 0.55 Å²; (charge state: 3) 438.28 ± 0.89 Å².
Regarding LTSLNVKYNNDK, the collision cross section runs as follows: (charge state: 2) 409.04 ± 2 Å²; (charge state: 3) 487.29 ± 4.9 Å².
The substance PRLPATGTFK came in with a collision cross section (charge state: 2) of 354.31 ± 1.3 Å² and a collision cross section (charge state: 3) of 450.95 ± 3.9 Å².
Under “charge state: 2”, GEYFGEK yielded a collision cross section of 311.09 ± 0.97 Å².
Take YGLIFHSTFIGRAAAK: for the setting “charge state: 3”, the collision cross section came to 526.88 Å².
TQAEGQGQGRGLGLVSAVR gave a collision cross section (charge state: 3) of 513.29 ± 0.77 Å².
In the case of TVSKVDDFLANEAK, the collision cross section came to 420.02 ± 1.7 Å² (charge state: 2) and 500.46 ± 2.4 Å² (charge state: 3).
Regarding VPGALAAAKAAK, the collision cross section worked out at 365.46 ± 0.4 Å² (charge state: 2) and 442.33 ± 1.2 Å² (charge state: 3).
Substance LQIASDENYK had a collision cross section (charge state: 2) of 357.85 ± 0.48 Å².
With AYPLADAHLTK, the collision cross section by setting is: (charge state: 2) 383.63 ± 0.16 Å²; (charge state: 3) 452.45 ± 1.1 Å².
For the substance SQLANTEPTK, the collision cross section (charge state: 2) amounted to 350.96 ± 0.68 Å².
Turning to GRGLPGPAESLR, the collision cross section is, setting by setting: (charge state: 2) 364.16 ± 0.25 Å²; (charge state: 3) 446.18 ± 17 Å².
As to ATAVVDGAFK, the collision cross section (charge state: 2) was 329.06 ± 0.69 Å².
Take GGRGTPGK: the collision cross section (charge state: 2) is given as 284.56 ± 17 Å².
As for CSVLAAANPVYGR, the collision cross section (charge state: 2) is listed as 385.24 ± 0.16 Å².
For the substance VYIASSSGSTAIKK, the collision cross section is, setting by setting: (charge state: 2) 426.35 ± 1.9 Å²; (charge state: 3) 494.89 ± 3.4 Å².
AVPSSPAGSAARGR displayed a collision cross section (charge state: 2) of 380.85 ± 0.71 Å² and a collision cross section (charge state: 3) of 489.36 ± 2 Å².
Substance HGGSGGRGVSVSSAR registered a collision cross section (charge state: 3) of 479.93 ± 1.3 Å².
Substance GPPGPPGK gave a collision cross section (charge state: 2) of 285.24 ± 0.86 Å².
Turning to VVPGYGHAVLR, the collision cross section runs as follows: (charge state: 2) 378.3 ± 0.16 Å²; (charge state: 3) 449.83 ± 0.86 Å².
Where the note is “charge state: 3”, DSINFLDHINGKK registered a collision cross section of 459.87 ± 3.8 Å².
Substance LNAIYQNNLTK showed a collision cross section (charge state: 2) of 381.14 ± 0.16 Å².
For VPTTEKPTVTVNFR, the collision cross section is given as 427.25 ± 2.6 Å² (charge state: 2) and 517.02 ± 4.3 Å² (charge state: 3).
For the substance VGVEVPDVNIEGPEGKLK, the collision cross section runs as follows: (charge state: 2) 456.21 ± 2.8 Å²; (charge state: 3) 537.32 ± 2.3 Å².
For the substance GGGGGGGGGAPRGR, the collision cross section came out at 341.22 ± 1.4 Å² (charge state: 2) and 426.09 ± 5.4 Å² (charge state: 3).
The corresponding values for HLRGHGPQPPLR are 396.64 Å² and 492.83 ± 0.94 Å².
For the substance VMVAPISGSVTTGTK, the collision cross section (charge state: 2) stood at 396.94 ± 0.14 Å².
For the substance PSIHGGSGGRGVSVSSAR, under “charge state: 3”, the collision cross section is reported as 503.12 ± 0.69 Å².
Take GDNGSVGEPGPK: the collision cross section (charge state: 2) was found to be 342.97 ± 0.86 Å².
With ILDLKTGTVK, the collision cross section runs as follows: (charge state: 2) 361.56 ± 1.2 Å²; (charge state: 3) 442.8 ± 7.1 Å².
Turning to GQKGEPGLPGHPGK, the collision cross section is, setting by setting: (charge state: 2) 378.64 ± 1.5 Å²; (charge state: 3) 470.96 ± 1.2 Å².
ITESVAETAQTIK showed a collision cross section (charge state: 2) of 394.65 ± 0.14 Å².
Turning to VRLQTTLR, the collision cross section runs as follows: (charge state: 2) 347.32 ± 0.41 Å²; (charge state: 3) 442.81 ± 6.5 Å².
With AVSILPLLGHGVPRLPPGR, the collision cross section (charge state: 3) worked out at 563.87 ± 2.3 Å².
DDIIENAPTTHTEEYSGEEK registered a collision cross section (charge state: 3) of 551.19 ± 0.23 Å².
As to FGSRGGPGGGFR, the collision cross section amounted to 358.01 ± 0.11 Å² (charge state: 2) and 437.12 ± 3.8 Å² (charge state: 3).
Substance LQLGTPPPLLAARLVPPR gave a collision cross section (charge state: 3) of 572.92 ± 0.68 Å².
For LDINTNTYTSQDLK, the collision cross section (charge state: 2) was found to be 418.99 ± 0.69 Å².
Turning to GPPRGGPGGELPR, the collision cross section runs as follows: (charge state: 2) 366.24 ± 0.38 Å²; (charge state: 3) 471.24 ± 3.4 Å².
In the same order, the values of KYEEIDNAPEER are 401.01 ± 1.2 Å² and 466.95 ± 4.5 Å².
RGGFAVQAK yielded a collision cross section (charge state: 2) of 337.58 ± 0.46 Å².
GTISAPGKVVTAAAQAK: the collision cross section (charge state: 2) stood at 464.56 ± 3.2 Å² and the collision cross section (charge state: 3) was 518.69 ± 4.3 Å².
On to FLQEFYQDDELGKK, for which the collision cross section is, setting by setting: (charge state: 2) 448.73 ± 2.1 Å²; (charge state: 3) 492.87 ± 3.2 Å².
In turn, DLEEAEEYK displayed a collision cross section (charge state: 2) of 358.42 ± 0.55 Å².
Turning to GRGVGSPEPGPTAPYLGR, the collision cross section runs as follows: (charge state: 2) 432.42 Å²; (charge state: 3) 517.8 ± 0.62 Å².
In the case of FVDSKVGEFSGANK, the collision cross section (charge state: 2) is on record as 415.64 ± 1.8 Å².
Consider SGNLTEDDKHNNAK, for which the collision cross section (charge state: 2) was 412.58 ± 1.5 Å² and the collision cross section (charge state: 3) was 490.18 ± 3.5 Å².
